Experimental data from publication PMC7356358.
Values joined by “and” are separate entries in the source; they are usually repeats but may differ in a detail not shown here. Equal values may be shown once.

How the values were obtained:
[1] = molecular target: KPf, chimeric protein of the ATPase domain of DnaK and the substrate binding domain of PfHsp70-1 (Escherichia coli | Plasmodium falciparum); assay: SPR
[2] = test system: Nc1ncnc2c1ncn2[C@@H]1O[C@H](COP(=O)(O)OP(=O)(O)OP(=O)(O)O)[C@@H](O)[C@H]1O; assay: purified protein, by the assay type; conditions: pH 7.5
Experimental: Hsp70 proteins at final concentration of 0.4 μM were each incubated for 5 min in buffer HKMD (10 mM HEPES-KOH pH 7.5, 100 mM KCl, 2 mM MgCl2 and 0.5 mM DTT). The reaction was initiated by the addition of ATP at various concentrations (0–5 mM) and samples were analyzed every 30 min for 4 h.
Standard deviations shown represent three independent assays made using separate protein purification batches.
validated by one way ANOVA test (p< 0.05 *) and (p<0.01**).

KPf, chimeric protein of the ATPase domain of DnaK and the substrate binding domain of PfHsp70-1
kon [1]: 154 M⁻¹ s⁻¹ and 132 M⁻¹ s⁻¹ and 142 M⁻¹ s⁻¹

PfHsp70-1 (Plasmodium falciparum 3D7)
Km [2]: 370.8 µM
